This note sets out measurements from the DeepSol protein solubility set.

The series can be described thus: soluble on expression in E. coli; label from the status in PepcDB or PDB records.
For “MGHHHHHHSHMLSVHTDMASVTKAMAAPESGLEVRDRMWLKITIPNAFLGSDVVDWLYHHVEGFPERREARKYASGLLKAGLIRHTVNKITFSEQCYYVFGDLSGGCESYLVNLSLNDNDGSSGASDQDTLAPLPGATPWPLLPTF”, the “soluble on expression in E. coli” value is on record as “soluble”. For the sequence “MVFGPGLCIAHRGTIVVNKGARVGENCRIHACTNIGSGRDNIFLAPKIGNGVYIGPGAKIFGSVEIADNIAIGANSVVNRSFYERGISIAGVPAKKISNKGSDGMVIAATKTVSVPVSQETILEHHHHHH”, the “soluble on expression in E. coli” value is “not soluble”.

With “MGSDKIHHHHHHENLYFQGMKIALIIENSQAAKNAVVHEALTTVAEPLGHKVFNYGMYTAEDKASLTYVMNGLLAGILLNSGAADFVVTGCGTGMGSMLAANAMPGVFCGLVIDPTDAFLFGQINDGNAISMPYSKGFGWAAELNLQDVYRKLFDGERGLGYPRERAEIMRKNRGILRELKDASCRDMLTVLKTVDQDLLRAAIAGEKFAELFYPNCKDDAIANYLRSLDA”, the “soluble on expression in E. coli” value is on record as “soluble”. Turning to “PATDIMFPHSSMELVEGIYKHNQVADYFNKVLADTLLAYLDERLKHDPEASIRIMEIGAGTGGTSAGIFEKLKPYQKHINEYCYTDLSKAFLLHAEKEYGAENPYLTYQLFDVEKPIDQQEFEAGGYDVVIAANVLHATKNIRQTLRHTKAVMKNNGMLLLNEMAGNSLFPHITFGLLEGWWLYEDPAVRIPGCPGLHPDSWKAALESEGFESVFF”, the “soluble on expression in E. coli” value was “not soluble”. As for “MLETKDLNLFLGNKHVLKNISLSIPVRGEIIGIMGPNGAGKSSLIKSLIGEFNATGTKLLYNKPIQQQLQHITYIPQKAHIDLDFPISVEQVILSGCYKEIGWFRRPNKSARDKLKQLLSDLELESLRHRQISELSGGQLQRVLVARALMSESEVYFLDEPFVGIDFSSEKLIMTKIENLKQQGKLILIIHHDLSKAKQYFDRIILLNQTLRYFGDSEEAMSVTRLNETFMSSTDCSDPSQRSNITC”, the “soluble on expression in E. coli” value is “not soluble”.

Regarding “MSLGETAGKLPRKPTLGPETAGATLVIPGETDRLASLYARAQAEGGKVVLWAGGDAPNQMDWLKTAFESRFPGVTLDVTVDLSKFHDLRIDQELAAGTLTPDVAMLQTTFDFDKWKARDVLLRYKPVGFARQKKGYADPDGAYVTAYNNAFVPTYASVRLPAERYPTRFADYLKPAFKGKLVLTYPHDDDAVLYVYDKLERRYGSGFLRALAAQKPNFLRGTAAPAASVGADSIGSLGNLTGYATDSDTPAGYFIPTDEPFIVWNQRAAIFKAARHPATAKLLLSYLGSAEFQSSYGGWRARADVGEAPGLPPLESLKNVDVHDFTRWMTDRQRVASLRRHMAEIFGPVRGESPLRDPALMSLLGLTANDIVALPEPDLPIYEGHHHHHH”, the “soluble on expression in E. coli” value is given as “soluble”. The same measure for “SLPKFGIEKRYNAAKSDIVSYLEKNNRNTSLGARFDMWENALIAIKEAPIFGHGSDGYDEFRHKQVKSKQMAKTTLNFGSLHNQYLESWVKRG”: “not soluble”; for “MELLLYSLDNEGPIRFIQITDTHLVEAADGHLLGLETQNSLEHVLSSVQSENDQFDFFVVSGDISQDGSLSSYQRLHESLAPFNVPSFWFPGNHDEMSNMKVVCQDTEHLVNIIRTPHWQLVLLNSQVEGAVFGNLGDDQFELLERALTERPDLHTLISLHHHPIPMESNWMDKIGVKNGDKLMAMARKYPKVKCILWGHVHQDSDRMVDGIRMLSTPSTCVQFMPKSKDFNIDMIAPGYRRLQLNPDGSIETEMSRVEGIEFEVDLSVKGY”: “soluble”; for “MGSDKIHHHHHHMPQDTISVSLLDSRIQASRPNYYNPLLVYKTAKIKVNKDAASYKILNLTVNNYEKQIETLEKENGNGEDQFGKEKTLLKTAMSNFFNSSEESLKSADLFIYKDKPEELKNYLKVHRHTFVVLINTEGDASDDGLKIYKDDYNKFKKPSTFFVFSTKEQEIKELFKDKGNTEKERNIAVYSNNKDNLHLKFISQYLHQASIFHAVNPYGMPLAATPLVDDTVIGKLRTAKINFYSLLNETGLDGVPAFKEGVDLAGGAIDEQFTYHYIKNEAIIELIRIWNKNNRQNSKLSALQLSGARDNAYTSAIECLLKRFVDRGLIIEYKNLRLTLSPTPQLKLELSVNITYNFSINAVALVITTQDIVDYQNSLSA”: “not soluble”. With “MTYYNVGKIVNTQGLQGELRVLSVTDFADERFKKKSVLALFDDKDNYIMDVEVASHRKHKNFDIVKFKGLYHINDVEKYKGCSLKIAEENLTDLDDGEFYYHEIIGLDVYEGNTLIGQVKEILQPGANDVWVVKRKGKKDLLLPYIPPVVLDVDVAAGRIEVELMEGLDDEDLEHHHHHH” the entry was “soluble”; with “MGCEPKRDCGCCQNSICEFLQSLEPYTKVESIIIAGNEIAVSYFLSFNKKTGIVSFVQEDNEVIFVDCSKIDAIRIGKVCSCKTKVKYIEEDFSLLGNVCPHCLTEGSTIFFDFNNPELNVSFQATTINPPRCTEFTDDLGNVVKQITIVGEAKVSRDFVQVPELVGFRLLLSHLAGDPLNYGLLFINFPDTIFIFILASSGYLSISNCLKIEGGTGDAEIEEMKKMIEDDVNTYKSVVKLTKVYKNGETESFIYKNEL”, “not soluble”. The same measure for “MMKQGMANSISMTWQLLCDEHGFTREHYNQLKKFSPETLREIIAEIASCHPSTSVLLRNKWLTPPEDILEQITREYERRIQNCPPFRSEKEAESWLNELSFAVIAPLYRVAPEQTEQVESFVLQLIAEQERVWELILTNDGYSWHCALYDILFHLVLRNMEDQPEHQKQRITKIFYEPDARLVAEEIKFRIQSLYDDEQKRALSELVNDFTSKE”: “soluble”; for “MGSDKIHHHHHHTDENETNNGKRTDCYNGTPLTVRATATGFENVPGSEKPSTRASVTDEHLKTEFVDGDSIGIFSIKDSTIVDDINNIPLVYNVSNDSWNPVENSKTLYWYDGASYIAYYPYRKNITLDVSKDTDEAIASLTRNEKLQPSKDQSTKEKHTVSDLLIATGVPTTGNSSGIILNLQFKHQFTLLVLQPQAYIGCFAPENAGFVYHKESRILGTDSAAINVNLNGITPYQIDSVKFCAIVPSQKNARITGSYVTADGRNNTNTKINYSGSSITFASGKCYTLKVISPVPGKGSTERKLYPGDFVFQNETEKRIEIHPGDGMLEENGKIYDYQNAIGMVITCDSKKMTDVKCNENGWNHAYVMGFENLGTGRWGGMERIEEGITPMTKDDEIEKNMNGYSETEQMLKNYTANVQGSYSAFESIRKYRNSNKIPDGLNRSPWFVPSIGQWFDMLVNICGKSPRDFRNETSNGLNDTGWGQETLDKLTIQLSKVGNSLPQFSDTYRLGFSCSSQYDKDRCWMLLWHIDDPEYPNWDRVCLQGYDKKAYWNVRPFFAF”: “not soluble”; for “MTVRRTAAARRGRDRKAEIVFPAPGADRFGRGDEPSVAVIGGGIAGLAAATLMAERGARVTLYEKEDAVGGRLSGRRTTLADGSAVTMTRGFHAFFRQYYNLRGLLRRTDPGLDRLTPLPDYPLRHSGGLTDGFARVPRTPPLSAIGFVALSPTFGWRDLAAMDPRAALPLLDVRVPQVYERFDGVTATAFLESVRFPEAAHHLAFEVFSRSFFADPRRLSAAELLLMFHIYFLGSSEGLLFDVPVEPFPQALWNPLGDYLRRLGADVRTGTPVHGILPRADGGADVLTDTGADRHQAVVLALDTAGLRQTVAASPGLGTDTWRDGIAALRTAPPFLVSRLWLDRPVDADRPGFLGTSGYGGLDNVSVLERYEGEAARWAARTGGSVVELHAYAVDPAAEPKEVQDELVDRLHQAYPETREARVVDARHEWRADCPMFEVGSHRRRPTVRTPHPWLTLAGDGIRCDLPVALMERAATTGFLAANALLADRGVRGQVLWTVPRTGRSPVLRAFGAVAGHRSAPLEHHHHHH”: “not soluble”. As for “MPHNPIRVVVGPANYFSHPGSFNHLHDFFTDEQLSRAVWIYGKRAIAAAQTKLPPAFGLPGAKHILFRGHCSESDVQQLAAESGDDRSVVIGVGGGALLDTAKALARRLGLPFVAVPTIAATCAAWTPLSVWYNDAGQALHYEIFDDANFMVLVEPEIILNAPQQYLLAGIGDTLAKWYEAVVLAPQPETLPLTVRLGINNAQAIRDVLLNSSEQALSDQQNQQLTQSFCDVVDAIIAGGGMVGGLGDRFTRVAAAHAVHNGLTVLPQTEKFLHGTKVAYGILVQSALLGQDDVLAQLTGAYQRFHLPTTLAELEVDINNQAEIDKVIAHTLRPVESIHYLPVTLTPDTLRAAFKKVESFKA”, the “soluble on expression in E. coli” value is recorded as “soluble”. Take “MNPESRVIRKVLALQNDEKIFSGERRVLIAFSGGVDSVVLTDVLLKLKNYFSLKEVALAHFNHMLRESAERDEEFCKEFAKERNMKIFVGKEDVRAFAKENRMSLEEAGRFLRYKFLKEILESEGFDCIATAHHLNDLLETSLLFFTRGTGLDGLIGFLPKEEVIRRPLYYVKRSEIEEYAKFKGLRWVEDETNYEVSIPRNRIRHRVIPELKRINENLEDTFLKMVKVLRAEREFLEEEAQKLYKEVKKGNCLDVKKLKEKPLALQRRVIRKFIGEKDYEKVELVRSLLEKGGEVNLGKGKVLKRKERWLCFSPEV”: the “soluble on expression in E. coli” value is on record as “soluble”.

Regarding “DYSYLFGQGGTELFGEFAGAANGAVGTINGLRYTHPVGGSYMLVGRYIPADYWSYYRGAFARYSRPGNEWGVMGRAAWELPSDRTVRAFADYYGSFVPRFGRKEKTEALYWMFEGEKRLSALSWSCRIRGTADKRYRRSLAVRLRGRYMFDERWRLMASLQWSRSNSFDRELQTWQAPTGGKSFALRADYSGGKLLRVCSMDAVAFDTDSFADRLYEAVHNPRHHYSSAFFYGRGVRLGVFVRIAPLPQVEVESRIDHLLRRDTDTIGSAGELIRGQARTHLFMTVRYR”, the “soluble on expression in E. coli” value is given as “not soluble”. The same measure for “GSPHMDEISETNTIFKLEGVSVLSPLRKKLDLVFYLSNVDGSPVITLLKGNDRELSIYQLNKNIKMASFLPVPEKPNLIYLFMTYTSCEDNKFSEPVVMTLNKENTLNQFKNLGLLDSNVTDFEKCVEYIRKQAILTGFKISNPFVNSTLVDTDAEKINSFHLQCHRGTKEGTLYFLPDHIIFGFKKPILLFDASDIESITYSSITRLTFNASLVTKDGEKYEFSMTDQTEYAKIDDYVKRKQMKDKSMSEELKAKSKSKG”: “soluble”. The same measure for “MKNIIRTPETHPLTWRLRDDKQPVWLDEYRSKNGYEGARKALTGLSPDEIVNQVKDAGLKGRGGAGFSTGLKWSLMPKDESMNIRYLLCNADEMEPGTYKDRLLMEQLPHLLVEGMLISAFALKAYRGYIFLRGEYIEAAVNLRRAIAEATEAGLLGKNIMGTGFDFELFVHTGAGRYICGEETALINSLEGRRANPRSKPPFPATSGVWGKPTCVNNVETLCNVPAILANGVEWYQNISKSKDAGTKLMGFSGRVKNPGLWELPFGTTAREILEDYAGGMRDGLKFKAWQPGGAGTDFLTEAHLDLPMEFESIGKAGSRLGTALAMAVDHEINMVSLVRNLEEFFARESCGWCTPCRDGLPWSVKILRALERGEGQPGDIETLEQLCRFLGPGKTFCAHAPGAVEPLQSAIKYFREEFEAGIKQPFSNTHLINGIQPNLLKERWLEHHHHHH”: “not soluble”. As for “MATSKILLYYAFTPLSDPKAVQLWQRELCESLNLRGRILISTHGINGTVGGDIDDCKAYIKKTREYPGFNRMQFKWSEGGAEDFPKLSVKVRDEIVAFGAPDELKVDENGVVGGGVHLKPQQVNELVEARGDEVVFFDGRNAMEAQIGKFKDAVVPDVETTHDFIAEIESGKYDDLKDKPVVTYCTGGIRCEILSSLMINRGFKEVYQIDGGIVRYGEQFGNKGLWEGSLYVFDKRMHMEFGEDYKEVGHCIHCDTPTNKFEHCLNEDDCRELVLMCPDCFANVETRHCKRERCAAIAADFAEQGIDPLVTSLEHHHHHH”, the “soluble on expression in E. coli” value is listed as “soluble”.

As for “MKEKISEKEYKALIRKTGKEHFDGEKEEYGDGTVGVWTYELRKYKLKPPVKVKYVTQEQFQEYKDSNNQRLIKIENKVDKLVEIVQIHGEQIKAQGETLQLILQTLQKMSDRLDKMEKRIDKLESKLEHHHHHH”, the “soluble on expression in E. coli” value is listed as “not soluble”.
